According to patent publication US20260151501A1, “ANTIBODY-DRUG CONJUGATE COMPRISING ANTI-CLAUDIN-18.2 ANTIBODY, AND THERAPEUTIC USE THEREOF FOR CANCER” (ABTIS CO., LTD., priority 2022, published 2026):

Assays:
[1] = biological target: CLDN18.2~VLP (virus-like particle) expressing the claudin18.2 protein, CSB-MP005498HU (A5), CUSABIO (UniProt P56856); test: indirect ELISA (OD 450 nm) on coated CLDN18.2 VLP, regression in GraphPad Prism
[2] = biological target: claudin18.2 protein (CLDN18.2) on CLDN18.2-positive cancer cell lines (MIA PaCa-2~CLDN18.2, SNU601, PATU8988S, NUGC-4) (UniProt P56856); test: cell-based or functional assay
[3] = biological target: claudin18.2 protein (CLDN18.2) on CLDN18.2-positive cancer cell lines (MIA PaCa-2~CLDN18.2, SNU601, PATU8988S, NUGC-4) (UniProt P56856); test: cell-based ELISA (OD 450 nm), PATU8988S (CLDN18.2+) cells
[4] = biological target: claudin18.2 protein (CLDN18.2) on CLDN18.2-positive cancer cell lines (MIA PaCa-2~CLDN18.2, SNU601, PATU8988S, NUGC-4) (UniProt P56856); test: cell-based ELISA (OD 450 nm), MIA PaCa-2 (CLDN18.2+) cells
[5] = biological target: claudin18.2 protein (CLDN18.2) on CLDN18.2-positive cancer cell lines (MIA PaCa-2~CLDN18.2, SNU601, PATU8988S, NUGC-4) (UniProt P56856); test: cell-based ELISA, MIA PaCa-2 (CLDN18.2+) cells; given as Kd, text calls it EC50
[6] = biological target: claudin18.2 protein (CLDN18.2) on CLDN18.2-positive cancer cell lines (MIA PaCa-2~CLDN18.2, SNU601, PATU8988S, NUGC-4) (UniProt P56856); test: cell-based ELISA (OD 450 nm), SNU601 (CLDN18.2+) cells; parameters: unit not given here
[7] = biological target: claudin18.2 protein (CLDN18.2) on CLDN18.2-positive cancer cell lines (MIA PaCa-2~CLDN18.2, SNU601, PATU8988S, NUGC-4) (UniProt P56856); test: cell-based ELISA, PATU8988S (CLDN18.2+) cells; given as Kd, text calls it EC50
SNU601 cell line = test: Cell-based ELISA binding to SNU601 cells; details: SNU601 (CLDN18.2+)
Experimental: (§1) OD value measurement through ELISA was performed by measuring the absorbance at 450 nm using a UV-Vis spectrometer.
(§2) Four types of cell lines (MIA PaCa-2˜CLDN18.2, PATU8988S, parental MIA PaCa-2 (CLDN18.2-), and SNU601) were prepared. At this time, MIA PaCa-2˜CLDN18.2 and PATU8988S are CLDN18.2-positive pancreatic cancer cell lines. MIA PaCa-2 (CLDN18.2-) is a CLDN18.2-negative pancreatic cancer cell line. SNU601 is a CLDN18.2-positive gastric cancer cell line.
(§3) The prepared cell lines were cultured in DMEM containing 10% FBS and 1% penicillin/streptomycin (MIA PaCa-2˜CLDN18.2, MIA PaCa-2 (CLDN18.2-)), RPMI1640 containing 10% FBS and 1% penicillin/streptomycin (SNU601), and DMEM containing 5% FBS, 5% serum, 1% penicillin/streptomycin, and 2 mM L-glutamine (PATU8988S) in an incubator under the conditions of 37° C. and 5% CO2.
(§4) The prepared cell lines were plated on 96-well plates for culture, and then treated with each of antibody-A, ADC-A, antibody-B, and ADC-B. Thereafter, cell-based ELISA was performed, and OD values were measured.
(§5) The measured results were used for a regression analysis in GraphPad PRISM® 9.0 software to calculate EC50 and Bmax. The cell binding affinity of antibody-A, ADC-A, antibody-B, and ADC-B to each cell line was evaluated based on the calculated values.

PATU8988S cell line = test: Cell-based ELISA binding to PATU8988S cells; details: PATU8988S (CLDN18.2+)
Experimental: as §1, §2, §3, §4, §5

[8] = biological target: T1, claudin18.2 protein (CLDN18.2) (Homo sapiens, UniProt P56856); test: Indirect ELISA binding to CLDN18.2 VLP; details: CLDN18.2 (antigen protein) VLP, OD at 450 nm
T1 construct: purchased CUSABIO TECHNOLOGY LLC CSB-MP005498HU (A5)
Experimental: as §1
To confirm the binding strength to an antigen, a CLDN18.2˜VLP (virus-like particle) expressing the claudin18.2 protein (CLDN18.2) was prepared. At this time, CLDN18.2˜VLP is CSB-MP005498HU (A5) from CUSABIO TECHNOLOGY LLC.
After a 96-well plate was coated with the CLDN18.2 VLP for ELISA and treated with each of antibody-A and ADC-A, indirect ELISA was performed to measure OD values.
The measured results were used for a regression analysis in GraphPad PRISM® 9.0 software to calculate EC50 and Bmax. The antigen binding affinity of antibody-A, ADC-A, antibody-B, and ADC-B were evaluated based on the calculated values.

[9] = tested on: MIA PaCa-2 (CLDN18.2-) cell line; test: Cell-based ELISA binding to MIA PaCa-2 (CLDN18.2-) cells; details: CLDN18.2 negative cell line
Experimental: as §1, §2, §3, §4, §5

[10] = tested on: MIA PaCa-2˜CLDN18.2 cell line; test: Cell-based ELISA binding to MIA PaCa-2˜CLDN18.2 cells
Experimental: as §1, §2, §3, §4, §5

Chain of Antibody-B (zolbetuximab antibody) (VH): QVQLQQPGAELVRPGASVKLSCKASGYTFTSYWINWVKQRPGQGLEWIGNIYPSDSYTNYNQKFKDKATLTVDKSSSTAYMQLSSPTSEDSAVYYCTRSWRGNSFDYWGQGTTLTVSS
Chain of Antibody-B (zolbetuximab antibody) (VL): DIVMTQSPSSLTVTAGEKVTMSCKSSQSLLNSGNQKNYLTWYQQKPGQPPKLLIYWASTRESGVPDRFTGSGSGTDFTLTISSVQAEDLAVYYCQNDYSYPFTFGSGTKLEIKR
Chain of ADC-B (antibody-B conjugated with MMAE) (VH): as the sequence (VH) above
Chain of ADC-B (antibody-B conjugated with MMAE) (VL): as the sequence (VL) above

Row | Substance | Bmax [1] | IC50 (nM), cell viability (CellTiter-Glo), MIA PaCa-2 (CLDN18.2+) [2] | IC50 (nM), cell viability (CellTiter-Glo), NUGC4 (CLDN18.2+) [2] | IC50 (nM), cell viability (CellTiter-Glo), PATU8988S (CLDN18.2+) [2] | IC50 (nM), cell viability (CellTiter-Glo), SNU601 (CLDN18.2+) [2] | Bmax [3] | Bmax [4] | Kd [5] | Bmax [6] | Kd [7] | Bmax (SNU601 cell line) | Bmax (PATU8988S cell line) | Bmax [8] | binding to parental MIA PaCa-2 [9] | Bmax [10]
1 | ADC-B (antibody-B conjugated with MMAE) | 2.87 | 2.12 nM | 20 nM | 7.19 nM | 10.4 nM | 2.33 | 3.33 | 0.065 µg/mL | 2.8 | 10.5 nM | – | – | – | – | –
2 | Antibody-B (zolbetuximab antibody) | 2.13 | – | – | – | – | 1.21 | 3.05 | – | 1.7 | 12.5 nM | – | – | – | – | –
3 | zolbetuximab [Antibody-B, reference compound] | – | – | – | – | – | – | – | – | – | – | 1.701 | 1.214 | 2.134 | none of the test substances bound | 3.053
